Test results from article PMC7959344.

Key:
[1] = molecular target: recombinant RRV 26–95 gH-FcStrep/gL (rhesus monkey rhadinovirus (RRV) isolate 26–95); assay: ELISA; RRV 26–95 gH-FcStrep/gL coated at 1μg/ml in PBS; Plxdc1 or Plxdc2 ectodomain 2h at room temperature in 10% FBS in PBS; detected by the C-terminal 6XHis Tag; fit: one site specific binding with Hill slope (Prism6)
[2] = molecular target: RRV 26–95 gH-V5/gL-Flag complex (rhesus monkey rhadinovirus (RRV) isolate 26–95)

Substance | EC50 [1] | infection of SLK cells by RRV-YFP wt after preincubation with 250nM hPlxdc2-FcStrep, relative to preincubation with FcStrep (Fig 2D) (% of control infection) [2] | infection of rhesus monkey fibroblasts (RF) by RRV-YFP wt after preincubation with 250nM hPlxdc2-FcStrep, relative to preincubation with FcStrep (Fig 2D) (% of control infection) [2]
human Plxdc1 ectodomain (aa 1–425) with a 6XHis Tag (from UniProt Q8IUK5-1 19-425) (domain or fragment) | 22.2 nM | – | –
human Plxdc2 ectodomain (aa 1–453) with a 6XHis Tag (from UniProt Q6UX71-1 31-453) (domain or fragment) | 5.2 nM | – | –
soluble human Plxdc2, ectodomain (amino acids 31–453) fused to IgG1 Fc with a C-terminal tandem Strep-Tag (from UniProt Q6UX71-1 31-453) (Fc fusion) | – | 63.5 | 73.9
